Substitutions are numbered along the chain they refer to.
B1: 411— Asp (protein, UniProt P62694 18-513, looked up, variant R411D)
Exoglucanase 1: QSACTLQSETHPPLTWQKCSSGGTCTQQTGSVVIDANWRWTHATNSSTNCYDGNTWSSTLCPDNETCAKNCCLDGAAYASTYGVTTSGNSLSIGFVTQSAQKNVGARLYLMASDTTYQEFTLLGNEFSFDVDVSQLPCGLNGALYFVSMDADGGVSKYPTNTAGAKYGTGYCDSQCPRDLKFINGQANVEGWEPSSNNANTGIGGHGSCCSEMDIWEANSISEALTPHPCTTVGQEICEGDGCGGTYSDNRYGGTCDPDGCDWNPYRLGNTSFYGPGSSFTLDTTKKLTVVTQFETSGAINRYYVQNGVTFQQPNAELGSYSGNELNDDYCTAEEAEFGGSSFSDKGGLTQFKKATSGGMVLVMSLWDDYYANMLWLDSTYPTNETSSTPGAVDGSCSTSSGVPAQVESQSPNAKVTFSNIKFGPIGSTGNPSGGNPPGGNRGTTTTRRPATTTGSSPGPTQSHYGQCGGIGYSGPTVCASGTTCQVLNPYYSQCL
B2: 411— Ser (protein, UniProt P62694 18-513, looked up, variant R411S)
Exoglucanase 1: B1 Exoglucanase 1 with D394S
B3: 411— Glu (protein, UniProt P62694 18-513, looked up, variant R411E)
Exoglucanase 1: B1 Exoglucanase 1 with D394E
B4: 411— Cys (protein, UniProt P62694 18-513, looked up, variant R411C)
Exoglucanase 1: B1 Exoglucanase 1 with D394C
B5: 268— Ala (protein, UniProt P62694 18-513, looked up, variant R268A)
Exoglucanase 1: B1 Exoglucanase 1 with R251A, D394R
B6: 268Glu (protein, UniProt P62694 18-513, looked up, variant R268E)
Exoglucanase 1: B1 Exoglucanase 1 with R251E, D394R
B7: 268Pro (protein, UniProt P62694 18-513, looked up, variant R268P)
Exoglucanase 1: B1 Exoglucanase 1 with R251P, D394R
B8: 268Cys (protein, UniProt P62694 18-513, looked up, variant R268C)
Exoglucanase 1: B1 Exoglucanase 1 with R251C, D394R
B9: 268Ser (protein, UniProt P62694 18-513, looked up, variant R268S)
Exoglucanase 1: B1 Exoglucanase 1 with R251S, D394R
B10: 411His (protein, UniProt P62694 18-513, looked up, variant R411H)
Exoglucanase 1: B1 Exoglucanase 1 with D394H
B11: 411Gly (protein, UniProt P62694 18-513, looked up, variant R411G)
Exoglucanase 1: B1 Exoglucanase 1 with D394G
B12: 411Ser (protein, UniProt P62694 18-513, looked up, variant R411S)
Exoglucanase 1: B1 Exoglucanase 1 with D394S
B13: 411Arg (protein, UniProt P62694 18-513, looked up)
Exoglucanase 1: B1 Exoglucanase 1 with D394R
B14: 411Thr (protein, UniProt P62694 18-513, looked up, variant R411T)
Exoglucanase 1: B1 Exoglucanase 1 with D394T
B15: 411Pro (protein, UniProt P62694 18-513, looked up, variant R411P)
Exoglucanase 1: B1 Exoglucanase 1 with D394P
B16: 411Met (protein, UniProt P62694 18-513, looked up, variant R411M)
Exoglucanase 1: B1 Exoglucanase 1 with D394M
B17: 268A+411Glu (protein, UniProt P62694 18-513, looked up, variant R268A R411E)
Exoglucanase 1: B1 Exoglucanase 1 with R251A, D394E
B18: 268A+411Met (protein, UniProt P62694 18-513, looked up, variant R268A R411M)
Exoglucanase 1: B1 Exoglucanase 1 with R251A, D394M
B19: 268A+411Asp (protein, UniProt P62694 18-513, looked up, variant R268A R411D)
Exoglucanase 1: B1 Exoglucanase 1 with R251A
B20: 268A+411Leu (protein, UniProt P62694 18-513, looked up, variant R268A R411L)
Exoglucanase 1: B1 Exoglucanase 1 with R251A, D394L
B21: 268A+411Val (protein, UniProt P62694 18-513, looked up, variant R268A R411V)
Exoglucanase 1: B1 Exoglucanase 1 with R251A, D394V
B22: 268A+411Thr (protein, UniProt P62694 18-513, looked up, variant R268A R411T)
Exoglucanase 1: B1 Exoglucanase 1 with R251A, D394T
B23: 268A+411Cys (protein, UniProt P62694 18-513, looked up, variant R268A R411C)
Exoglucanase 1: B1 Exoglucanase 1 with R251A, D394C
B24: 268A+411Gln (protein, UniProt P62694 18-513, looked up, variant R268A R411Q)
Exoglucanase 1: B1 Exoglucanase 1 with R251A, D394Q

Assay: 4-MUL cellobiose tolerance/inhibition assay, dose-response IC50 (Example 2)
Assay type: biochemical
Settings: 1 mM cellobiose; primary screening; n=1
In short: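 IC50 reflects cellobiose concentration halving activity, fitted by four-parameter dose-response with zero activity fixed at knockout-strain background. Assays used 4-MUL (0.5 mM) with enzyme at 5 μg/mL or less, pH 6 MES, 25 mM gluconolactone blocking BG, cellobiose up to 100 mM; 4-MU fluorescence read.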

Molecule | Tolerance at 1 mM CB (MUL Data) [%]
B1 | 106
B2 | 60
B3 | 76
B4 | 71
B5 | 48

Same assay, conditions: 268 single substitution; averaged IC50 from Tables 8-11; read-out: 268— Measured (merged IC50)

Molecule | IC50 [µM]
B6 | 630
B7 | 520
B8 | 380
B9 | 500

Same assay, conditions: 411 single substitution; averaged IC50 from Tables 8-11; read-out: 411— Measured (merged IC50)

Molecule | IC50 [µM]
B10 | 2930
B11 | 1810
B12 | 870
B13 | 50
B14 | 1970
B15 | 1130
B16 | 3340

Same assay, conditions: double mutant 268A+411X; averaged IC50 from Tables 8-11; read-out: 268A+411— Measured (merged IC50)

Molecule | IC50 [µM]
B17 | 14400
B18 | 11700
B19 | 11500
B20 | 22700
B21 | 14800
B22 | 11700
B23 | 10200
B24 | 13700

Same assay, conditions: double mutant 268A+411X; expected IC50 (additive values of single mutations); read-out: 268A+411— Expected IC50

Molecule | IC50 [µM]
B17 | 3810
B18 | 3910
B19 | 2280
B20 | 7120
B21 | 3730
B22 | 2540
B23 | 1740
B24 | 3090

Same assay, conditions: double mutant 268A+411X; measured versus expected additive IC50

Molecule | synergy of double mutant (measured vs expected additive IC50)
B17 | 3.8
B18 | 3.0
B19 | 5.0
B20 | 3.2
B21 | 4.0
B22 | 4.6
B23 | 5.8
B24 | 4.5

Same assay, conditions: primary screening; 10 μL enzyme; cellobiose range 0.0001-100 mM; n=1; read-out: IC50 (MUL Data)

Molecule | IC50 [µM]
B1 | 2080
B2 | 1050
B3 | 2950
B4 | 1600
B5 | 870

Assay: 4-MUL assay, specific activity (Example 2)
Assay type: biochemical
Settings: 268 single substitution
Protocol: CBH I activity on was measured using the 4-MUL assay using gluconolactone to inhibit any BG activity. The fluorogenic 4-MUL substrate (SIGMA) was prepared at 100 mM concentration in DMSO. Assays were run in black 96-well-flat-bottomed plates (Costar) and 4-MU fluorescence was read on a BioTek H4 plate reader (ex/em 365/450 nm). Assay plates were filled with buffer (final concentrations of 100 mM MES, pH 6, 25 mM gluconolactone, with or without cellobiose; cellobiose concentrations are listed with appropriate data sets), to which enzyme mixture was added (10-30 μl, 5 μg/mL final) and then assays were initiated by addition of 4-MUL (0.5 mM final concentration in 100 μl total volume). Enzyme mixtures were either CBH I variants from harvested supernatants or standards. Standards included: a negative control, consisting of harvested supernatant from the CBH I knock-out strain; a positive control, consisting of wild-type CBH I from harvested supernatants; and, a commercial CBH I standard (E-CBHI from Megazymes). Activity standards were run by serial dilution of commercial CBH I from 40 to 0.02 μg/mL and 4-MU (SIGMA, prepared at 20 mM in DMSO) (in dilution increments of 2-fold; all dilutions were made using harvested supernatant from the knock-out control). Kinetic rates were monitored over the first 15 mins following 4-MUL addition; initial rates were calculated based on data in the linear range. After 1 hr, a final endpoint read was taken, both before and after reaction quenching (100 μL of 200 mM Sodium Carbonate, pH 10.0). Activity was calculated for kinetic and endpoint reads; background resulting from the CBH I knock-out supernatant remained negligible. 4MU standard curves and HPLC quantification values were used to calculate specific activity.
The specific activity (SA) of the variant library was evaluated in a secondary 4-MUL assay. […] On average, a mutation at position 268 increases the specific activity by 2.5 fold over that of wild type. A mutation at 268 in combination with 411 is around 1.5-1.6 fold higher than wild-type, on average.

Molecule | 268— Measured Specific Activity (SA) [μmol 4 MU/min/mg CBH I] | 268— Δ SA* (change in specific activity; ratio of variant: WT)
B6 | 1.84 | 2.4
B7 | 3.38 | 4.4
B8 | 1.81 | 2.4
B9 | 1.85 | 2.4

Same assay, conditions: 411 single substitution

Molecule | 411— Measured Specific Activity (SA) [μmol 4 MU/min/mg CBH I] | 411— Δ SA* (change in specific activity; ratio of variant: WT)
B10 | 0.80 | 1.0
B11 | 0.60 | 0.8
B12 | 0.60 | 0.8
B13 | 0.83 | 1.1
B14 | 0.48 | 0.6
B15 | 0.70 | 0.9
B16 | 0.57 | 0.7

Same assay, conditions: double mutant 268A+411X

Molecule | 268A+411— Δ SA* (change in specific activity; ratio of variant: WT) | 268A+411— Measured Specific Activity (SA) [μmol 4 MU/min/mg CBH I]
B17 | 0.6 | –
B18 | 2.3 | 1.78
B19 | 2.9 | 2.21
B20 | 1.3 | –
B21 | 2.3 | 1.78
B22 | 2.3 | 1.78
B23 | 2.4 | 1.85
B24 | 1.6 | 1.22

Same assay, conditions: primary screening; 10 μL enzyme; n=1

Molecule | SA (μmol 4 MU/min/mg) (MUL Data)
B1 | 0.23
B2 | 0.51
B3 | 0.38
B4 | 0.52
B5 | 1.42

From US20140287471A1, “VARIANT CBH I POLYPEPTIDES WITH REDUCED PRODUCT INHIBITION” (BP CORPORATION NORTN AMERICA INC., priority 2011, published 2014)
